The results in this text go back to the nanobody polyreactivity screen of Harvey et al. (2022).

A short description of this data set: yeast display, Sf9 membrane polyspecificity reagent, FACS + sequencing; frameworks hold sequencing errors. The gist of the method: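 Synthetic nanobody libraries on Saccharomyces cerevisiae BJ5465 were galactose-induced for 36–48 hours, stained 1 hour at 4 °C with 10% biotinylated, detergent-solubilized Sf9 membrane reagent and enriched on streptavidin microbeads. FACS then separated cells into low and high (top ~1%) gates by anti-HA (expression) and streptavidin (reagent binding) fluorescence. Genes were colony-PCR amplified, MiSeq 2 × 250 sequenced and CDR-length filtered. A clone's polyreactivity label is that of its gate of origin.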
For the sequence “QVQLVESGAGLVQAGGSLRLSCAASGSTFGRNAMGWYRQPPGKERELVASISSGGSTYYADSVKGRFTISRDNAKNTVYLQMNSLKPEDTAVYYCAKDWVYEISYYYYELDYWGQGTQVTVSS”, the “polyreactivity (PSR sort gate)” value is listed as “low polyreactivity”.
As for “QVQLVESGAGLVQAGGSLRLSCAASGSTFVINAMGWYRQPPGKEREFVADIDYRGGSTNYADSVKGRFTISHDNAKNTFYLQMNSLKPEDTAVYYCAAARVTIRSSHWSVDYWGQGTQVTVSS”, the “polyreactivity (PSR sort gate)” value is listed as “low polyreactivity”.
As to “QVQLVESGAGLVQAGGSLRLSCAASGSTFWWNTMGWYRQAPGKERELVAAITTGGGTYYADSVKGRFTISRDNAKNTVYLQMNSLKPEDTAVYYCAATVRSYGWYAYHYSTYGYWGQGTQVTVSS”, the “polyreactivity (PSR sort gate)” value is “low polyreactivity”.
Under “QVQLVESGAGLVQAGGSLRLSCAASGYTFYFYAMGWYRQAPGKERELVAAITGGGTTSYADSVKGRFTISRDNAKNTVYLQMNSLKPEDTAVYYCNVLFADKSDYCGQGTQVTVSS” stands “low polyreactivity”.
Consider “QVQLVESGAGLVQAGGSLRLSCADSGIIFSSNAMGWYRQAPGKERELVASITSAGNTYYADSVKGRFTISRDNAKNTVYLQMNSLKPEDTAVYYCYARYYYQYFHFSWSYPYGSWGQGTQVTVSS”, for which the “polyreactivity (PSR sort gate)” value is reported as “high polyreactivity”.
Under “QVQLVESGAGLVQAGGSLRLSCAPSGFTFSWYVMGWYRQAPGKERELVAAITSSGGRTYYADSVKGRFTISRDNAKNTVYLQMNSLKPEDTAVYYCAARFKRGLGDSWGQGTQVTVSS” stands “high polyreactivity”.
Regarding “QVQLVESGAGLVQAGGSLRLSCDASGRTVNIYAMGWYRQAPGKERELVADISYSDGSTDYADSVKGRFTISRDNAKNTVYLQMNSLKPEDTAVYYCAAYYYYYYGFGQRYYSWGQGTQVTVSS”, the “polyreactivity (PSR sort gate)” value was “low polyreactivity”.
“QVQLVESGAGLVQAGGSLRLSFAASGRTFRGYAMGLYRQGPGKEREWVAAISSGGSTYYADSVKGRFTISRDNAKNTVSLQMYSLKPEDTAVYYCARAVGNYRTLEFDYWGQGTQVTVSS”: the “polyreactivity (PSR sort gate)” value is recorded as “low polyreactivity”.
The entry for “QVQLVESGAGLVQAGGSRRLSCAASVLIFAWYAMGWSRQAPGNERELVAAITGTGSSTYYADSVKGRFTISRDNAKNTVYLLLNSLKPDDTAVYYCAPTSLPRYYYWGQGTQVTVSS” is “low polyreactivity”; for “QVQLVESGAGLVQAGVSLRLSCAASGSIFADYAMGWYRQAPGKERELVAVISRRGGTTYYADSVKGRFTISRDNAKNTVYLPMNSLKPEDTAVYYCAARRSFNEYDYWGQGTQVTVSS” it is “high polyreactivity”; for “QVQLVESGAGLVQAGVSLRLSCAPSGFTFTGYAMGWYRQSPGKERELVASISKSDGSTYYAESVKGRFTISRDNAKNTVYLQMNSLKPEDTAVFYCAADANTRGSKGRLTHYDYWGQGSQVTVSS” it is “low polyreactivity”.
The entry for “QVQLVESGAGLVQARASHRLSCAASGSTLYAYAIGCSRQEPGKEREMVAAISGTGGSTYYADSVKGRFTISRDNAKNTVYLQMNTLKPEDTADYYCAAYYNYFGQRYYYWGQGTQVTVSS” is “high polyreactivity”.
“QVQLVESGAGVVQAGGSLRLSCAASGSTFYRYAMGWYRQAPGKERELVATITNSGGSTYYADSVKGRFTISRDNAKNTVYLQMNSLKPEDTAVYYCARVRSRNTGYYYWGQGTQVTVSS”: the “polyreactivity (PSR sort gate)” value is “high polyreactivity”.
With “QVQLVESGEGLVQAGGSLRLSCAASGIFPYNAMGWYRQAPGKEREFVAGISRRGGSTYYADSVKGRFTISRDNAKNTVYLQMNSLKPEDTAVYYCAAGTYHKVVRRWASYYYWGQGTQVTVSS”, the “polyreactivity (PSR sort gate)” value is on record as “high polyreactivity”.
The entry for “QVQLVESGGALDQAGGSLRLTCAASGFIFGVNAKGWYRKAPGKERELVAAITARSGSTYYADSVKGRFTISRDNAKNTVYLQMNSLKPEDTAVYYWATPVYRSTYEYDYWGQGTQVTVSS” is “low polyreactivity”; for “QVQLVESGGALDQAGGSLRLTCAASGFIFYFYAKGWYRQAPGKERELVAAIDSAGSTNYADSVKGRFTISRDNAKNTVYLQMNSLKPEDTAVYYCAREPDSYVSWRSRYNYWGQGTQVTVSS” it is “low polyreactivity”; for “QVQLVESGGALLQAGGSLRLSCAASGGTFYDYAMGWYRQAPGKERELVAAISASGDSTYYADSVKGRFTISRDNAMNTVYLQMNSLKPEDTAVYYCAAEFTAFDGFDYWGQGTQVTVSS” it is “low polyreactivity”.
Under “QVQLVESGGALVLAGGSLRLSCAASGFTFQYYAMGWYRQAPGKERELVAAIDWTGGSTYYADSVKGRFTISRDNAKNTVYLQMNSLKPEDTAVYFCNRELTSPRRWHVSRAYDYWGQGTQVTVSS” stands “low polyreactivity”; under “QVQLVESGGALVQAGGRLRLSCAASGRTFRAYAMGWYRQAPGKERELVAAITSGGSTYYADSVKGRFTISRDNAKNTVYLQMNSLKPEDTEVYYCNRRGWSRTHQYDYWGQGTQVTVSS”, “high polyreactivity”; under “QVQLVESGGALVQAGGSLRISCAASGLTFKLYTMGWYRQAPGKERELLAAISRSGTRTYYADSVKGRFTISRDNAKNTVYLLMNSLKPEDTADYYCAARTDGYRNNYWGQGTQVTVSS”, “high polyreactivity”.
The entry for “QVQLVESGGALVQAGGSLRISCAASGRIFDGYTMGWSRQAPGKERELVAAITSGGGSTYYADSVKGRFTISRDNAKNTVYLQMNSLKPEDTAVYYCAAYRRNTYWGQGTQVTVSS” is “high polyreactivity”; for “QVQLVESGGALVQAGGSLRLNCAASGRTFGYNAMGWYRQAPGKERELVAAITIGGSTNYADSVKWRFTISRDNAKNNGYLQMNSLLPEDTAVYYCAAYDTLLYWVEFYYWGQGTQVTVSS” it is “low polyreactivity”; for “QVQLVESGGALVQAGGSLRLSCAASGFTFPPSARGWYRQAPGKERELVARITWSGDRTYYADSVKGRFTISRDNAKNTVYLQMNSLKPEDTAVYYCAARRLPRKERKLYYWGQGTQVTVSS” it is “high polyreactivity”.
As for “QVQLVESGGALVQAGGSLRLSCAASGISFSWYAMGWYRQAPGKEREFVAAISRGGTSTYYADSVKGRLTISRDNAKNTVYLQMNSLKPEDTAVSYCAVQWLYPYDYWGQGTQVTVSS”, the “polyreactivity (PSR sort gate)” value was “high polyreactivity”.
For “QVQLVESGGALVQAGGSLRLSCAASGITFKPYGMGRYRQAPGKETELVADITSGGITYYADSVKGRFTISRDNAKNTVYLQMNSLKPEDTDVYYCAAVGGRSSYRLDYWGQGTQVTVSS”, the “polyreactivity (PSR sort gate)” value is “low polyreactivity”.
Turning to “QVQLVESGGALVQAGGSLRLSCAASGLIYSHNAMGWYRQAPGKERELVAAISWRGGRTYYADSVKGRFTISRDNAKNTVYLLMNSLKPEDTAVFYCNKYYGKRYDYLGQGTQVTVSS”, the “polyreactivity (PSR sort gate)” value is “high polyreactivity”.
Under “QVQLVESGGALVQAGGSLRLSCAASGNIFVYYAMGGYRQAPGKERELVAAITSDVSTYYADSVKGRFTISRDNAKNTVYLQMNSLKPEDTAVYYCATTGYGSYVIYWGQGTQVTVSS” stands “low polyreactivity”.
Take “QVQLVESGGALVQAGGSLRLSCAASGNTFRGYTMGWYRQAPGKEREFVAAISWSGGRTNYADSVKGRFTISRDNAKNTVYLQMNSLTPEDTAVYYCGRDYRARRWGMDYWGQGTQVTVSS”: the “polyreactivity (PSR sort gate)” value is given as “high polyreactivity”.
Consider “QVQLVESGGALVQAGGSLRLSCAASGRIFGVYAMGWYRQAPGKERELVAAITRGASTYYADSVKGRFTISRDNSKNTVYLQMNSLKPEDTAVYYCAVSQYRGIYRKYDYWGHGTQVTVSS”, for which the “polyreactivity (PSR sort gate)” value is on record as “high polyreactivity”.
The entry for “QVQLVESGGALVQAGGSLRLSCAASGRTFAKYAMGWYRQAPGKERELFAAINSSGGSTYYADSVKGRFTISRDNAKNTVYLQMNSLKPEDTAVYYCADLGIGSYRRYSGYDYWGQGTQVTVSS” is “low polyreactivity”.
